Results as given in patent publication US11680267B2, “Co-regulatory sequences based on tetracycline and Cumate” (Shenzhen Eureka Biotechnology Co., Ltd., priority 2020, dated 2023).

System: 293T(T&C)-TRE3GCuO-Luc cells and 293T(T&C)-TRE3GCuO-BGI-Luc cells
Test: Luciferase assay in stable cell lines under different combinations of DOX and Cumate (Example 5)
Format: cell-based
Settings: for induced transcription activity: 24 hours, stable cell line
Excerpt: In this Example, stable cell lines, under complex regulation of Tet-ON and Cumate, TRE3GCuO or TRE3GCuO-intron, and with Luciferase as the reporter gene, were constructed. Then, based on these cell lines, induced transcription activities of the reporter gene under the following 4 induction conditions were detected: without inducer, Cumate only, DOX only or both DOX and Cumate inducers. In this Example, the Luciferase reporter gene was taken as an example, and in principle, the method of the present disclosure was not affected by the nucleic acid fragment of interest. The specific experimental methods were as follows:
293T cells were seeded at 1.5E+06 cells per 60 mm culture dish, and cultured in DMEM (Sigam, D6429) complete medium supplemented with 10% FBS (ExCell, 11H116) at 37° C. and 5% CO 2. After 24 hours of culture, transfection was carried out according to the PEI method. During transfection, 500 μL of transfection reagent which contained 5.5 ug of total plasmid was added to each 60 mm culture dish, and the mass ratio of total plasmid to PEI MAX (Polysciences, 24765-1) was 1:4; and thereby 3 Luciferase stable cell lines were constructed. The transfection plasmids were transfected at the 19BF075:19BF229:18BF019 molar ratio of 5:5:1 to obtain 293T(T&C)-CMV-BGI-Luc cells; the transfection plasmids were transfected at the 19BF075:19BF235:18BF019 molar ratio of 5:5:1 to obtain 293T(T&C)-TRE3GCuO-Luc cells; the transfection plasmids were transfected at the 19BF075:19BF237:18BF019 molar ratio of 5:5:1 to obtain 293T(T&C)-TRE3GCuO-BGI-Luc cells. The plasmid and PEI MAX were mixed uniformly, and then put into a culture dish after standing for 15 minutes. 3 hours after transfection, the medium was changed to a complete DMEM medium, and the transfection operation was completed. After 24 hours of transfection, the cells were digested with trypsin and all seeded in a 100 mm culture dish (Corning, 430167), and 200 μg/ml of hygromycin (Sangon Biotech A600230-0001) drug screening was performed for at least three passages. After the growth of cells under the pressure of drug screening was consistent with that of the original 293T cells, the above 3 cells were diluted to 1 cell per well by a limiting dilution method and seeded in a 96-well plate; when the cells grew to about 50% of the bottom area of the well, the wells with strong EGFP green fluorescence intensity and uniform luminescence were selected under the fluorescence microscope, and 3 independent clones of each cell were selected for the following experiments.
For the above 3 cells, 3 independent clones for each cell were seeded into a 96-well plate (Corning 3916) at 2.5E+04 cells per well, with 8 wells per clone, and the medium was 100 microliters of DMEM complete medium. After 24 hours of culture, the medium was replaced and the following reagents were added into the duplicate wells of the 8 wells for each cell: (1) the same amount of medium, (2) Cumate at a final concentration of 200 ug/ml, (3) DOX at a final concentration of 1 ug/ml, or (4) DOX at a final concentration of 1 ug/ml and Cumate at a final concentration of 200 ug/ml. After 24 hours of further culture, relative light unit RLU of each well was detected using a Steady-Glo® Luciferase Assay System (Promega, E2610) kit according to the instruction (Promega, FB037), wherein the detection instrument was a fluorescence microplate reader (Perkin Elmer Victor V).

B1: TRE3GCuO: Tet-On (7xTetO of TRE3G) and Cumate complex response element, CuO 50 bp behind the TATA box (SEQ ID NO: 23) (nucleic acid)
DNA: TCCCTATCAGTGATAGAGAACGTATGAAGAGTTTACTCCCTATCAGTGATAGAGAACGTATGCAGACTTTACTCCCTATCAGTGATAGAGAACGTATAAGGAGTTTACTCCCTATCAGTGATAGAGAACGTATGACCAGTTTACTCCCTATCAGTGATAGAGAACGTATCTACAGTTTACTCCCTATCAGTGATAGAGAACGTATATCCAGTTTACTCCCTATCAGTGATAGAGAACGTATTAGGCGTGTACGGTGGGCGCCTATAAAAGCAGAGCTCGTTTAGTGAACCGTCAGATCGCCTGGAGCAATTCCACATACAAACAGACCAGATTGTCTGTTTGTT
modifications: TRE3GCuO50 response element sequence
Adding both DOX 1 ug/ml and Cumate 200 ug/ml
  induced transcription activity: 7.54E+06 RLU
Adding both DOX and Cumate
  induced transcription activity relative to no induction: 2381.05 times
  induced transcription activity relative to only adding Cumate: 552.99 times
  induced transcription activity relative to only adding DOX: 35.19 times
Both DOX and Cumate inducers added
  maximum induced transcription activity as % of that of CMV promoter: 47.84%
Only adding Cumate
  induced transcription activity relative to no induction: 4.31 times
Only adding Cumate 200 ug/ml
  induced transcription activity: 1.36E+04 RLU
Only adding DOX
  induced transcription activity relative to no induction: 67.66 times
  induced transcription activity relative to only adding Cumate: 15.71 times
Only adding DOX 1 ug/ml
  induced transcription activity: 2.14E+05 RLU
